Source: patent US20050277175

Molecular target: bovine aggrecan (UniProt P13608)
Sequence (P13608 20-2364): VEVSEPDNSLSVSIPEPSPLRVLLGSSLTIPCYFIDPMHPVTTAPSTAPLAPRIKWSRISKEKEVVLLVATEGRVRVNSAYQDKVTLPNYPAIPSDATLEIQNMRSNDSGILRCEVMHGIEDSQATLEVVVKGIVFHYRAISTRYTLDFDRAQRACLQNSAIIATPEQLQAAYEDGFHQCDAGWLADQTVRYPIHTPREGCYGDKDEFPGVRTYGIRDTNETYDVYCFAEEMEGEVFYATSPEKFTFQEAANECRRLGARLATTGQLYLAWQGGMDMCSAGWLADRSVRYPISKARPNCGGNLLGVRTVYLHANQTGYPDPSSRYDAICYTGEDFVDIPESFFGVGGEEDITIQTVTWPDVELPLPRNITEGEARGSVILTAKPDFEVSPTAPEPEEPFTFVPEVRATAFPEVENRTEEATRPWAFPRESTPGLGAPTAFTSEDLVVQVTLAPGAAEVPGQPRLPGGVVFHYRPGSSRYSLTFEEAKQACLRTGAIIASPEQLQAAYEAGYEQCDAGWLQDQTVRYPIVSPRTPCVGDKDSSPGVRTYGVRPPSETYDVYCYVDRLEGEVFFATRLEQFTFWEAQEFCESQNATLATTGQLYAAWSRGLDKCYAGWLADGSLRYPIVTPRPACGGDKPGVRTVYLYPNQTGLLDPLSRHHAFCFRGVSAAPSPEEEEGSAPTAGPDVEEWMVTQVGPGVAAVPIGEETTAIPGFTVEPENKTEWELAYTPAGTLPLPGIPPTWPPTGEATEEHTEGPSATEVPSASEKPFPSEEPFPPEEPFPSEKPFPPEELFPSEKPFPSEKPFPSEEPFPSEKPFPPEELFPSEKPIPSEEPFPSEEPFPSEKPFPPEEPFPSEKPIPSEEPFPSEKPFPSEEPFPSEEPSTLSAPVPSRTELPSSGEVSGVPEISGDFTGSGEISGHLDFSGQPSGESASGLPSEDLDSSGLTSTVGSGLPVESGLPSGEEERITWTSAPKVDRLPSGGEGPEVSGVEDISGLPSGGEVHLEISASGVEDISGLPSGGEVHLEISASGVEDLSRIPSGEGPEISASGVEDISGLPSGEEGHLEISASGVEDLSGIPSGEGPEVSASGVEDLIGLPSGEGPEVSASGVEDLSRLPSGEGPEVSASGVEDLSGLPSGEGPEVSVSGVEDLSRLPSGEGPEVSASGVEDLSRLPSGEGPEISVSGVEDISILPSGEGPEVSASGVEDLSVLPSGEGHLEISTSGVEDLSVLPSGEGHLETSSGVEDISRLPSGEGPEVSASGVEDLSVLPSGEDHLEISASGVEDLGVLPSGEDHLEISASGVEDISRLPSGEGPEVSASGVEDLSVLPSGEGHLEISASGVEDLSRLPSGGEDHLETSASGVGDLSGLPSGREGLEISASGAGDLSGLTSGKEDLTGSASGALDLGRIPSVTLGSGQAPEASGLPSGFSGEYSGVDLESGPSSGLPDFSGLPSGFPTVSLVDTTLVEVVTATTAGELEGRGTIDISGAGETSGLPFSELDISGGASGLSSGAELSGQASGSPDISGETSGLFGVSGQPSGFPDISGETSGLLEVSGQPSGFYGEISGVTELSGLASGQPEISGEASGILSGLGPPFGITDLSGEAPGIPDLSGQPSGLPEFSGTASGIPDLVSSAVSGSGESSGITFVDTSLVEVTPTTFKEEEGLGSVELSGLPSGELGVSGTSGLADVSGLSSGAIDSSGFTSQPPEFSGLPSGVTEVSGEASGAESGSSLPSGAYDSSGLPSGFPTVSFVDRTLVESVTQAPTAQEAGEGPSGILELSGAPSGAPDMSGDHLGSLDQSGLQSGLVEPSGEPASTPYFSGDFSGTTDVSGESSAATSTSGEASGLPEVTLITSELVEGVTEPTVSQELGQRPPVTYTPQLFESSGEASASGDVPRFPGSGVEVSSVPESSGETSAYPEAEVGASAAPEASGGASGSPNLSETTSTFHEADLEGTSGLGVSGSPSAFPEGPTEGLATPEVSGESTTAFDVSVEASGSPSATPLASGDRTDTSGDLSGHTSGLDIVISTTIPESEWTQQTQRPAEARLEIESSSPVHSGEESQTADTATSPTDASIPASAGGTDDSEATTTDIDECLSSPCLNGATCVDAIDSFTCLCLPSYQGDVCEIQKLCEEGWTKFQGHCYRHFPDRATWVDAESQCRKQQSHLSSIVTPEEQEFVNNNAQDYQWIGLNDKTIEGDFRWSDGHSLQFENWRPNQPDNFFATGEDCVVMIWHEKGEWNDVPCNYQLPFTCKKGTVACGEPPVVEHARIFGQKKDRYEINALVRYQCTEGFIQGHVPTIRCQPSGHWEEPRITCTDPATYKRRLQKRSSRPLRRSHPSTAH

recombinant aggrecanase 1 protein (ADAMTS-4)
aggrecanase activity (digestion of bovine aggrecan, neoepitope Western blot with C1 MAb): Positive control is recombinant aggrecanase 1 protein (ADAMTS-4)
